Drawing on PMC6478338, “Peptide barcoding for establishment of new types of genotype–phenotype linkages” (PLoS ONE, 2019), this text covers Kd, koff and kon for 2 molecules.

The target in the experiment is T1, Recombinant human sCD4 CF (Homo sapiens, UniProt P01730).
T1 construct: CD4, human, soluble recombinant form (sCD4, carrier-free); it is probably the extracellular domain of CD4 (surmised); also called recombinant CD4; source: bought: R&D Systems
Description: SPR; Biacore T-200; sCD4 (2486.9 RU) or GFP (1189.8 RU) immobilised on CM5 chip; nanobodies flowed in HBS-EP (0.01 M HEPES pH 7.4, 0.15 M NaCl, 3 mM EDTA, 0.005% P20): anti-CD4 0.2-1.0 uM, anti-GFP 0.5-50 nM; 30 uL/min, contact 120 s, dissociation 120 s. As to conditions: both partners purified.

B1: Anti-CD4-FLAG nanobody (VHH)
VHH: EVQLVESGGGSVQPGGSLTLSCGTSGRTFNVMGWFRQAPGKEREFVAAVRWSSTGIYYTQYADSVKSRFTISRDNAKNTVYLEMNSLKPEDTAVYYCAADTYNSNPARWDGYDFRGQGTQVTVSS
notes: also called anti-CD4 nanobody; source: Pichia pastoris GS115, secreted; culture supernatant filtered, concentrated and buffer-replaced with PBS
Consider B1, for which the Kd turned out to be 42 nM, the koff turned out to be 0.0054 s⁻¹ and the kon was 68000 M⁻¹ s⁻¹.

B2: Anti-CD4-FLAG-Barcode 1 nanobody (VHH)
VHH: B1 VHH
notes: also called peptide-barcoded anti-CD4 nanobody; source: Pichia pastoris GS115, secreted; culture supernatant filtered, concentrated and buffer-replaced with PBS; purified with anti-FLAG gels (immunostaining)
As for B2, the Kd worked out at 52 nM, the koff stood at 0.004 s⁻¹ and the kon was 77000 M⁻¹ s⁻¹.
